Source: patent US20160185837A1, “GIP AND GLP-1 RECEPTOR DUAL-AGONISTS FOR THE TREATMENT OF DIABETES” (Medimmune Limited, priority 2013, published 2016)
Values joined by “and” are separate entries in the source; they are usually repeats but may differ in a detail not shown here. Equal values may be shown once.

T1: mouse GIP receptor (mouse) (UniProt Q0P543)
T1 sequence (looked up): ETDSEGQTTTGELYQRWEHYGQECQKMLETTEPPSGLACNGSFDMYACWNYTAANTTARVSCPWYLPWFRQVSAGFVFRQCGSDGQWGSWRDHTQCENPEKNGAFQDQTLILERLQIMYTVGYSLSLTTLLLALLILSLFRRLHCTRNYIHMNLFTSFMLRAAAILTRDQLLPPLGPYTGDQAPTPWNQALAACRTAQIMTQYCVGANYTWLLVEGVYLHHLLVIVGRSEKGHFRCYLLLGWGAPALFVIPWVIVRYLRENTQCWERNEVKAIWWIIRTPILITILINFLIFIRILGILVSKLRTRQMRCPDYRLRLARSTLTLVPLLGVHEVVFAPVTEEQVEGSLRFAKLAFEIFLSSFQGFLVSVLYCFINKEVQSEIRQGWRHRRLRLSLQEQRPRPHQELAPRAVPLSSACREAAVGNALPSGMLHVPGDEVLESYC

T2: rat GIP receptor (rat) (UniProt P43219)
T2 sequence (looked up): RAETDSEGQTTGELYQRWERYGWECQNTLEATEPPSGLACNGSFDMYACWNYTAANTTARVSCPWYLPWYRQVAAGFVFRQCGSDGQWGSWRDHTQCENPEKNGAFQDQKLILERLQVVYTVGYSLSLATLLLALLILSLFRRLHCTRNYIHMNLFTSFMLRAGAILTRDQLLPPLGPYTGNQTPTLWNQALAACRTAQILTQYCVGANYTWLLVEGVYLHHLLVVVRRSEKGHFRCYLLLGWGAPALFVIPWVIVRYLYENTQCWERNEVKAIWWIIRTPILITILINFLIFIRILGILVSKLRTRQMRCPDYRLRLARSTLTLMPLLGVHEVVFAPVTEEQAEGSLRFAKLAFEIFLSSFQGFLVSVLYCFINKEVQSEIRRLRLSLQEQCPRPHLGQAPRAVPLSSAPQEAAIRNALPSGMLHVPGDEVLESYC

T3: human GIP receptor (human) (UniProt P48546)
T3 sequence (looked up): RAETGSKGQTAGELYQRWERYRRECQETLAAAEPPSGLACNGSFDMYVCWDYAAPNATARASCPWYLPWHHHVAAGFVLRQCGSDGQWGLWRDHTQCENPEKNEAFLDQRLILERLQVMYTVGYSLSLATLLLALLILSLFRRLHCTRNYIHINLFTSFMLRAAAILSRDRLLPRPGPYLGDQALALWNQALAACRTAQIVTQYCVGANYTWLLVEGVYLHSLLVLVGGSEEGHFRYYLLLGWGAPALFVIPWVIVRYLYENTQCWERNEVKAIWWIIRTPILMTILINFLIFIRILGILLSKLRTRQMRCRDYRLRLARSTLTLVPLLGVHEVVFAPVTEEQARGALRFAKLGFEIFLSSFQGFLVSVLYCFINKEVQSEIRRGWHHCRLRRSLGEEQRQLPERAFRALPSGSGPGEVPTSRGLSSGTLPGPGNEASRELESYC


Key:
Assay in all cases: cell-based or functional assay
[1] = target: mouse GLP-1 receptor (mouse) (UniProt O35659)
Chain of mouse GLP-1 receptor (mouse) (O35659 22-463): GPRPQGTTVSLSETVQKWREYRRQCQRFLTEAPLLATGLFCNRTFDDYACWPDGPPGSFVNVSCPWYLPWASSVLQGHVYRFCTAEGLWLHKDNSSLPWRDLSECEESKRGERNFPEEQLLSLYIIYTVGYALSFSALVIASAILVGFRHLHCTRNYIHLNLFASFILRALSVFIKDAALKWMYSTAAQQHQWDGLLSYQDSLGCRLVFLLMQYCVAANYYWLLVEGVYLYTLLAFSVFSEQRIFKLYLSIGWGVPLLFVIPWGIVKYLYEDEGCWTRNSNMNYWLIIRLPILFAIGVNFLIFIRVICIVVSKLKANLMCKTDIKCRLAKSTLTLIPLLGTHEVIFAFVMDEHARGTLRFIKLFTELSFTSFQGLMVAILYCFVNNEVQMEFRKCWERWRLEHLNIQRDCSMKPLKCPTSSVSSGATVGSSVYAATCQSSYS

[2] = target: T1, mouse GIP receptor (mouse)
[3] = target: rat GLP-1 receptor (rat) (UniProt P32301)
Chain of rat GLP-1 receptor (rat) (P32301 22-463): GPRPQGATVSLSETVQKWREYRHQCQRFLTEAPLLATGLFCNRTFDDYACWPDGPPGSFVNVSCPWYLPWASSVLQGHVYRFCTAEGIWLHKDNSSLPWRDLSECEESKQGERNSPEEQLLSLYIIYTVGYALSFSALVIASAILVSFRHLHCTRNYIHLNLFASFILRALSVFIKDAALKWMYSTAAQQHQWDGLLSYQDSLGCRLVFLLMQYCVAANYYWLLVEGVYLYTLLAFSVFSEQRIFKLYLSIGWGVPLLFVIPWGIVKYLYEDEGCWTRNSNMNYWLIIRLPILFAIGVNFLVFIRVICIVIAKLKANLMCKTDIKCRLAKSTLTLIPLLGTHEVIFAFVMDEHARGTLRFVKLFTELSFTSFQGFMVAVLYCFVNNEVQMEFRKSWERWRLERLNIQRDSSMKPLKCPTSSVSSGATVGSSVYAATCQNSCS

[4] = target: human GLP-1 receptor (human) (UniProt P43220)
Chain of human GLP-1 receptor (human) (P43220 24-463): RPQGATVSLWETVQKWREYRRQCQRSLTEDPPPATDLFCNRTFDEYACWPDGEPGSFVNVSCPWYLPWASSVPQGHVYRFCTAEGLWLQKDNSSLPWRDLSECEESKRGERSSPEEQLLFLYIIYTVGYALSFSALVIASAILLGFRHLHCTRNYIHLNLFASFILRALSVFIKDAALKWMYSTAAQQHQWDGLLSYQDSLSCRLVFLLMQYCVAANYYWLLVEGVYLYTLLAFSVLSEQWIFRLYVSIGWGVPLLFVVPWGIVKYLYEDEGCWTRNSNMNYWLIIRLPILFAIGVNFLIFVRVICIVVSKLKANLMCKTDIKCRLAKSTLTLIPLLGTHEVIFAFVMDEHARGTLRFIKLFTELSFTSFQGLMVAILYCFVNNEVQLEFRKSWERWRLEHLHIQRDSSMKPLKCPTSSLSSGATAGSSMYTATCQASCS

[5] = target: T2, rat GIP receptor (rat)
[6] = target: T3, human GIP receptor (human)
[7] = target: human glucagon receptor (human) (UniProt P47871)
Chain of human glucagon receptor (human) (P47871 26-477): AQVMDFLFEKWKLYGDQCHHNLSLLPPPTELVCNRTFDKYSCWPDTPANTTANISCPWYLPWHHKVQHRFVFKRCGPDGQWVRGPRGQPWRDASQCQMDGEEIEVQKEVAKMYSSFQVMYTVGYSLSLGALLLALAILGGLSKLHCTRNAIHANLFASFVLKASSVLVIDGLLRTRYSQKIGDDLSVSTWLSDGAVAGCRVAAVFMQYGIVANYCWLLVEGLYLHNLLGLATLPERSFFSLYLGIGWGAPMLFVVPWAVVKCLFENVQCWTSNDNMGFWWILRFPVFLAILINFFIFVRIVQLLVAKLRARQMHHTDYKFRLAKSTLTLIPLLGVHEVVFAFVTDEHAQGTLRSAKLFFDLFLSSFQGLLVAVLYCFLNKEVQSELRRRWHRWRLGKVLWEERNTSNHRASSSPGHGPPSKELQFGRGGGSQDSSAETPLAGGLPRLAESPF

Binder	cAMP EC50 [1]	cAMP EC50 [2]	cAMP EC50 [3]	cAMP EC50 [4]	cAMP EC50 [5]	cAMP EC50 [6]	cAMP EC50 [7]	cAMP EC50, hGIPr (C3) line [6]	cAMP EC50, Batch 1 [2]	cAMP EC50, Batch 2 [4]	cAMP EC50, Batch 3 [4]	cAMP EC50, Batch 1 [5]	cAMP EC50, Batch 2 [7]	cAMP EC50, Batch 3 [7]	cAMP EC50, Batch 1 [6]	cAMP EC50, Batch 2 [6]	cAMP EC50, Batch 3 [6]
IP226 (Fc fusion) YSEGTFTSDVSKLLERQAIDEFIAWLLKGGAAAGGSGSTASSGSGSATGGGGAATHTCPPCPAPEF	1 nM	7.5 nM	0.061 nM	0.2 nM	0.27 nM	0.025 nM											
IP250 (Fc fusion) YSEGTFTSDVSIAMDRQAIDEFIAWLLKGGAAAGGSGSTASSGSGSATGGGGAATHTCPPCPAPEF	22 nM	35 nM	2.2 nM	1.1 nM	5.3 nM	0.11 nM											
IP223 (Fc fusion) YSEGTFTSDVSSYMEEEAIDEFIAWLLKGGAAAGGSGSTASSGSGSATGGGGAATHTCPPCPAPEF	80 nM		18 nM	16 nM	72 nM	2.5 nM											
IP364 (Fc fusion) YSEGTFTSDFSKLLERQAIDEFIAWLLKGGAAAGGSGSTASSGSGSATGGGGAATHTCPPC	0.69 nM	0.5 nM	0.058 nM	0.18 nM	0.02 nM	0.0085 nM	610 nM										
IP373 (Fc fusion) YSEGTHTSDFSKLLERQAIDEFIAWLLKGGAAAGGSGSTASSGSGSATGGGGAATHTCPPC	9.2 nM	3.2 nM	0.9 nM	0.72 nM	0.035 nM	0.0054 nM	> 6790 nM										
IP367 (Fc fusion) YSEGTFTSDYRILKERQAIDEFIAWLLKGGAAAGGSGSTASSGSGSATGGGGAATHTCPPC	390 nM	0.031 nM	8 nM	4.4 nM	0.0099 nM	0.057 nM	> 1300 nM	13 nM									
IP366 (Fc fusion) YSEGTFTSDYRMLKERQAIDEFIAWLLKGGAAAGGSGSTASSGSGSATGGGGAATHTCPPC	100 nM	0.056 nM	14 nM	6.1 nM	0.016 nM	0.14 nM	> 10200 nM										
IP375 (Fc fusion) YSEGTHTSLFSKLLERQAIDEFIAWLLKGGAAAGGSGSTASSGSGSATGGGGAATHTCPPC	49 nM	0.65 nM	3.9 nM	4 nM	0.07 nM	0.078 nM	> 11700 nM										
IP018 (Fc fusion) YSEGTFISDYSIAMDKIHQQDFVNWLLAQKAAAGGSGSTASSGSGSATGGGGAATHTCPPCPAPEF				> 317 nM			> 317 nM	0.8 nM	0.022 nM	4200 nM	> 6350 nM	0.0076 nM	480 nM	720 nM	0.0026 nM	0.0051 nM and 0.0093 nM	0.0064 nM
IP368 (Fc fusion) YSEGTFTSDYRQAIDRQAIDEFIAWLLKGGGGGGGSGGGGSGGGGSGGGGSACPPC	> 4860 nM	1.3 nM	370 nM	230 nM	0.22 nM	0.2 nM	> 4860 nM										
IP330 (Fc fusion) YSEGTFTSDYSKLLERQAIDEFIALLLKGGGGGGGSGGGGSGGGGSGGGGSGGGGSGGGGSA	5.5 nM	0.45 nM	0.089 nM	0.66 nM	0.023 nM	0.009 nM	1100 nM										
IP331 (Fc fusion) YSEGTFTSDYSKLLERQAIDEFIADLLKGGGGGGGSGGGGSGGGGSGGGGSGGGGSGGGGSA	22 nM	4 nM	0.31 nM	2.6 nM	0.06 nM	0.013 nM	> 1950 nM										
IP346 (Fc fusion) YSEGTFTSDYSKLLERQAIDEFIAFLLKGGGGGGGSGGGGSGGGGSGGGGSGGGGSGGGGSA	0.29 nM	0.16 nM	0.017 nM	0.08 nM	0.01 nM	0.011 nM	180 nM	0.16 nM									
IP347 (Fc fusion) YSEGTFTSDYSKLLERQAIDEFIAILLKGGGGGGGSGGGGSGGGGSGGGGSGGGGSGGGGSA	2.5 nM	0.85 nM	0.087 nM	0.75 nM	0.024 nM	0.013 nM	> 1490 nM										
IP348 (Fc fusion) YSEGTFTSDYSKLLERQAIDEFIASLLKGGGGGGGSGGGGSGGGGSGGGGSGGGGSGGGGSA	0.89 nM	1.4 nM	0.037 nM	0.29 nM	0.024 nM	0.011 nM	> 907 nM										
IP369 (Fc fusion) YSEGTFTSDYSKLLERQAIDEFIAHLLKGGGGGGGSGGGGSGGGGSGGGGSGGGGSGGGGSA	0.27 nM	0.68 nM	0.023 nM	0.071 nM	0.02 nM	0.0089 nM	710 nM										
IP349 (Fc fusion) YSEGTFTSDYSKLLERQAIDEFIANLLKGGGGGGGSGGGGSGGGGSGGGGSGGGGSGGGGSA	0.86 nM	0.55 nM	0.059 nM	0.16 nM	0.014 nM	0.0079 nM	1200 nM										
IP352 (Fc fusion) YSEGTFTSDYSKLLERQAIDEFIAMLLKGEGGGGGSGGGGSGGGGSGGGGSGGGGSGGGGSA	3.6 nM	0.52 nM	0.0076 nM	0.13 nM	0.0089 nM	0.0069 nM	620 nM										
IP350 (Fc fusion) YSEGTFTSDYSKLLERQAIDEFIAGLLKGGGGGGGSGGGGSGGGGSGGGGSGGGGSGGGGSA	2.7 nM	1.3 nM	0.21 nM	0.86 nM	0.024 nM	0.013 nM	> 1360 nM										
IP413 (Fc fusion) YSEGTFTSDYSKLLEEEASRLFIEWLLAGGGGGGSGGGGSGGGGSGGGGSATHTCPPC	8.9 nM	3.7 nM	0.048 nM	0.19 nM	> 113 nM		7.6 nM										
IP343 (Fc fusion) YSEGTFTSDYAAAAERQAIDAFAAWLAAAAGGGGGSGGGGSGGGGSGGGGSA	> 2070 nM	880 nM	360 nM	960 nM	110 nM	72 nM	> 2070 nM										
